# Laboratory results from the supplement of paper PMC9170038.
# System: MS2 coat protein
# Assay: apparent KD of MS2 coat protein; designed switch direction (-1 OFF switch, 1 ON switch): -1; higher = weaker reporter binding
# Procedure, shortened: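 RNA switches sharing common flanks were transcribed by stalled E. coli RNA polymerase on Illumina chips. A doubling series of SNAP-549-labelled MS2 coat protein, from 0.7 or 1.5 nM to 3 µM, was applied in Tris-HCl pH 7.5 buffer with KCl, MgCl2, BSA, DTT, tRNA and Tween-20. Each step lasted 0.8–1.5 h at the bottom of the series and 10–20 min at the top. Normalised cluster fluorescence was curve-fitted, giving apparent KD as the per-design median over clusters.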
# [1] = Eterna round: R95, input ligand: FMN 200 uM
# [2] = Eterna round: R95, input ligand: microRNA oligo, concentration not stated
# [3] = Eterna round: R95, input ligand: none
# [4] = input ligand: microRNA oligo, concentration not stated
Sequence,apparent KD of MS2 coat protein [1],apparent KD of MS2 coat protein [2],apparent KD of MS2 coat protein [3],apparent KD of MS2 coat protein (input ligand: FMN 200 uM),apparent KD of MS2 coat protein (input ligand: none),apparent KD of MS2 coat protein [4]
AAAAAACAAGGAUAUACUAAGGAUGAUUAUCUUAAUUUUUGACAUGAGGAUCACCCAUGUAGAAGGUGUUAAAA [JR_Exclusion2_Sub007] (puzzle: Exclusion 2),98.9 nM,47.5 nM,41.2 nM,–,–,–
"AAAAAGGUAGGAUAUCCACUUUAAAACAUGAGGAUCACCCAUGUAAAACCACAUGAAAAAGGAGAAGGACCAAAAA [AK-MS2ROC-r4-exclusion5-2] (Eterna round: R97, puzzle: Exclusion 5)",–,–,–,24.7 nM,26 nM,–
"AAAACGUCAGGAUAUCCAAUAUAUGACAUGAGGAUCACCCAUGUUUCCACUCGUACCUCCGGAGAAGGGACUUAUA [Ex5 #83] (Eterna round: R97, puzzle: Exclusion 5)",–,–,–,43.9 nM,46.2 nM,–
"AAAAGAUAAGGAUAUUGAAGGUUCGACAUGAGGAUCACCCAUGUUAUGUUGGAAAAGGGACAAGAAGGUAUGAAAG [salish99_ex5_r4_203] (Eterna round: R97, puzzle: Exclusion 5)",–,–,–,31.5 nM,41.8 nM,–
AAAAGGCUAGGAUAUACCAGUGGGUGUAAGAACUCAAAUUUACAUGAGGAUCACCCAUGUAGAAGGAGUAAAAU [Dilaed] (puzzle: Exclusion 2),–,19.5 nM,–,–,–,–
AAAAGGCUAGGAUAUCGCGGUAACAACAUGAGGAUCACCCAUGUGAAGGUGUCUUCUGCCCGAGAAGGAGCAGAGU [Tientixe] (puzzle: Exclusion 5),43.2 nM,25.6 nM,29.9 nM,–,–,–
AAAAGGUCAGGAUAUACAAGAAAAGAAAAGAAAAGAAAAGAGUAGAAGGGACAUGAGGAUCACCCAUGUAAAAG [Default title] (puzzle: Exclusion 4),30.6 nM,45.8 nM,35.1 nM,–,–,–
AAAAGGUGAGGAUAUGAGGCGCCGGGCCGGUUGGUGCGGAUUCAGAAGGCACAUGAGGAUCACCCAUGUAAUAA [Excls4-II] (puzzle: Exclusion 4),52.2 nM,38.7 nM,50.4 nM,–,–,–
AAACACUUAGGAUAUACAUGAGGAUCACCCAUGUCAGACAACGACUACACAAAGUCAUGUAGAAGGAAGUCAAG [Islarele] (puzzle: Exclusion 3),24.3 nM,24.1 nM,26 nM,–,–,–
AAACCCUGAGGAUAUACAUAACAACAAAUCCUCACGUGCCAACAUGAGGAUCACCCAUGUAGAAGGCAGGCCCA [Bigegedi] (puzzle: Exclusion 2),48.4 nM,15.8 nM,15.3 nM,–,–,–
"AAACGCCGAGGAUAUACCCAACCAGUCCUCUAAAGAAGAAAACAUGAGGAUCACCCAUGUAGAAGGCGGUGCAA [Anorti] (Eterna round: R97, puzzle: Exclusion 2)",–,–,–,51.8 nM,28.1 nM,–
"AAACGGCGGAUCGUGGCUUUUUGCUCGUCUUGUGCUUCAACAUGAGGAUCACCCAUGUAGUGGUGAUCCGUUGUAAA [Grok-var2-17 mod JAL] (puzzle: Sensor v3, turn-off variant 2)",25.8 nM,26.7 nM,42.1 nM,–,–,–
"AAACGGUAAGGAUAUCGGGCAACGGACAUGAGGAUCACCCAUGUGAACCUGCGUAUCCUCCGAGAAGGUACAAAAG [Diinbibe] (Eterna round: R97, puzzle: Exclusion 5)",–,–,–,20 nM,10.9 nM,–
"AAAGCACAUGAGGAUCACCCAUGUGAGGAUAUACAGAAAAUCUCGUUUACGAGGACUCGUAGAAGGCGCAGUGC [Eternabot (L2) Solution 19] (Eterna round: R97, puzzle: Exclusion 1)",–,–,–,20.9 nM,21.3 nM,–
"AAAUAACAAGCAAGAUCCUACAUGAGGAUCACCCAUGUGCUCGUCUUAUAAAGUACUAUCACGAAAGUGAUAGUACA [Sensor 3, v1 - 11] (puzzle: Sensor v3, turn-off variant 1)",675 nM,392 nM,546 nM,–,–,–
"AAAUAAUAGAUAAAAUAAUACAUGAGGAUCACCCAUGUGCGAUGUUGAGGGUGAUACAGGCUUUUUGCUCGUCUUAU (puzzle: Sensor v3, turn-off variant 1)",177 nM,20.5 nM,67.9 nM,–,–,–
"AAAUACAAGCAAAGAUCCUACAUGAGGAUCACCCAUGUGCUCGUCUUGUAAAGUACUAUCACGAAAGUGAUAGUACA [Sensor 3, v1 - 16] (puzzle: Sensor v3, turn-off variant 1)",51.9 nM,27.5 nM,70.2 nM,–,–,–

Sequence,apparent KD of MS2 coat protein [1],apparent KD of MS2 coat protein [2],apparent KD of MS2 coat protein [3],apparent KD of MS2 coat protein (input ligand: FMN 200 uM),apparent KD of MS2 coat protein (input ligand: none),apparent KD of MS2 coat protein [4]
"AAAUACAGGUAAAGAUUCUACAUGAGGAUCACCCAUGUGCUCGUCUUAUAAAGUACUAUCACGAAAGUGAUAGUACA [Sensor 3, v1 - 40] (puzzle: Sensor v3, turn-off variant 1)",25.9 nM,169 nM,21.6 nM,–,–,–
"AAAUACCGGUGAGGAUAUUUAUAAUAGAGCUUUAUGAUAUACAUGAGGAUCACCCAUGUUACUUUAAAGAAGGCAUCGGAAUAA [Mat - Exclusion NG 2 - Mod of JL - D93] (Eterna round: R96, puzzle: Exclusion NG 2)",–,–,–,15.4 nM,18.9 nM,13.9 nM
"AAAUAGCUAGAGGAUAUUGGAUAGGAUUUAGUACGAGAAGGUUAGACAUGAGGAUCACCCAUGUUGUGUUGGGA [EX6 #16] (Eterna round: R97, puzzle: Exclusion 6)",–,–,–,49.2 nM,52.9 nM,–
AAAUCCGCUGAGGAUAUGAUGACUGAGAGGUCAUCAGAAGGCGGUACAUGAGGAUCACCCAUGUCUAUGGGCAA [Ex-6 Malc#29] (puzzle: Exclusion 6),313 nM,317 nM,636 nM,–,–,–
AAAUCCGCUGAGGAUAUUAUGAGUGAGAGCUCAUGAGAAGGCGGUACAUGAGGAUCACCCAUGUCUAUGGGCAA [Ex-6 Malc#26] (puzzle: Exclusion 6),–,329 nM,–,–,–,–
"AAAUCUCACGUGAGGAUAUCCUGGGCAACGUCCACGGAGAAGGCACAUGAGGAUCACCCAUGUGUUCGCAAUAC [Brourd's mod of Exclusion 4 (MOD2 of Nando's BmEX4 C.1)] (Eterna round: R97, puzzle: Brourd's mod of Exclusion 4)",–,–,–,22.3 nM,17.9 nM,–
AAAUGAUGUCAGGAUAUUGACGUUAAAAGAACGCAAGAAGGGACAACAUGAGGAUCACCCAUGUGGUCCUAUAA [Bira] (puzzle: Exclusion 6),–,13 nM,–,–,–,–
AAAUUAAGUGUGAGGAUAUGCUGGUCCUUGGAUCAGCAGAAGGCACAUGAGGAUCACCCAUGUAAUAUAUUUAA [Mat - Exclusion 4 - JL Mod - D49] (puzzle: Brourd's mod of Exclusion 4),439 nM,74.2 nM,144 nM,–,–,–
AAAUUCUGAGGAUAUCGAUGUUUGUACAUGAGGAUCACCCAUGUCCUUUUUAUUUAAUCCCGAGAAGGCAGUGUAU [JR_E5_Sub098] (puzzle: Exclusion 5),–,32.6 nM,–,–,–,–
"AACAAAACGCGAGGAUAUCGCCAACAUGAGGAUCACCCAUGUCACGGGUGCAAAUGUCUUCUAGGCGAGAAGGCGCAUCCAUAC [Diatza] (Eterna round: R96, puzzle: Exclusion NG 2)",–,–,–,704 nM,641 nM,344 nM
"AACAAGCUUUUAAGAUCCUACAUGAGGAUCACCCAUGUGCUCGUCUUGUAACGUACUGUGACGAAAGUCACGGUACG [JL TOV1 3.29] (Eterna round: R97, puzzle: Sensor, turn-off variant 1)",–,–,–,233 nM,182 nM,–
"AACACGGCAGGAUAUACUUGAGGAUCACCCAAGUUGUUCGCAACAUAAAAUAACUCUUGUAGAAGGGCCAAAAG [Isorbi] (Eterna round: R97, puzzle: Exclusion 3)",–,–,–,220 nM,33.6 nM,–
"AACAGUACAGGAUAUACAUGAGGAUCACCCAUGUGAAGAAUAAGUGGAGUACCACAAAGUAGAAGGGUACUGGA [Ruby 88] (Eterna round: R96, puzzle: Exclusion 3)",–,–,–,–,–,21.5 nM
"AACCUAAUGCGAGGAUAUACUGAGACGUACAGUCGUCAGACAUGAGGAUCACCCAUGUACGCCUCGUAGAAGGCGCGUGACUAA [Bearareus] (Eterna round: R96, puzzle: Exclusion NG 2)",–,–,–,32.6 nM,16.8 nM,13.4 nM
"AACCUGAGGCAAAGCUUUAGGUGUACAUGAGGAUCACCCAUGUAGGAUAUGGUAAGCAAAGCUUACCAGAAGGACAUAAUGAUA [Mat - Exclusion NG 3 - Mod of JL - D49] (Eterna round: R96, puzzle: Exclusion NG 3)",–,–,–,86.5 nM,59.4 nM,37.6 nM
"AACCUGAGGCUUUGCUUUAGGUGUACAUGAGGAUCACCCAUGUAGGAUAUGGUAGGCUUUGCUUACCAGAAGGACAUUAUGAUG [JL ENG3 1.17] (Eterna round: R96, puzzle: Exclusion NG 3)",–,–,–,75.1 nM,52.8 nM,44.3 nM
"AACUAAACAUGAGGAUAUGCCUGGGAAGAACAGGCAGAAGGCGUGACAUGAGGAUCACCCAUGUAGCCGGGCUAUUCUCAUGCG [Cediceor] (Eterna round: R96, puzzle: Exclusion NG 1)",–,–,–,25.3 nM,31.3 nM,26.1 nM
